Target: human kallikrein 7 variant hK7-2.7 (human) (UniProt P49862)
Chain of UniProt P49862 (P49862 30-253 Q52R/N119S/K129G/V157G/L189Q/Q228R/G233V): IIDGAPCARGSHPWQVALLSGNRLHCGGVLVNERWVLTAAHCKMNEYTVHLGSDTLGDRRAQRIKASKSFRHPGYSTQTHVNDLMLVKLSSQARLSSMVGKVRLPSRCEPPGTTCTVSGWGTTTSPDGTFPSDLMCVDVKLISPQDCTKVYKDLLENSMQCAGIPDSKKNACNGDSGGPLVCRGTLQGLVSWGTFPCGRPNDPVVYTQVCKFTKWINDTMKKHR

For “lympho-epithelial Kazal-type related inhibitor (LEKTI) fragment consisting of domains 10–15 (domain or fragment)”, the inhibition of Aβ8 FRET reporter cleavage (5 nM protease, 200 nM substrate, 37°C) was > 130 nM.

Source: publication PMC13012646
